From article PMC4243253 (Biochemical Journal, 2014) come the findings set out here.

One may read the stoichiometry N as a count of units in the complex or per binding partner.

The series concerns the molecule itself. The series is described as follows: SEC.

B1: Pseudomonas aeruginosa kynurenine formamidase KynB, His-tagged (enzyme)
chain: MTSLRYWDISPALDPNTPTWPGDTPFQQEWAARLDEQCPVNVGRITLSPHTGAHVDGPLHYRADGLPIGQVPLDIYMGPCRVIHCIGANPLVTPEHLAGQLDDLPSRVLLRTFERVPANWPEGFCAIAPATIECLAERGVRLVGIDTPSLDPQHSKTLDAHHAVGRHGMAILEGVVLDDVPAGDYELLALPLKFTHLDASPVRAVLRALPTAE
notes: also called PaKynB; PaKynB-His; source: E. coli BL21(DE3)pLysS, purified (HisTrap, SEC Superdex75); not shown: His6, N-terminal, kept
For B1, the “stoichiometry N” value was 2.

B2: Burkholderia cenocepacia kynurenine formamidase KynB (enzyme)
chain: MDTLWDISPPVSPATPVWPGDTPVAVERVWRMEAGSPVNVARLTLSPHTGAHCDAPLHYDADGAPIGAVPLDTYLGPCRVIHCIGAAPVVRPADVEAALDGVPPRVLLRTYARAAVEQWDSNFCAVAPDTVDLLAAHGVKLIGIDTPSLDPQESKTMDAHRRVRAHRMAILEGIVLDDVPPGDYELIALPLKFATLDASPVRAVLRALPAQAS
notes: also called BcKynB; KFase
Consider B2, for which the “stoichiometry N” value stood at 2.
